According to publication doi:10.1101/2023.01.06.522972 (2023):

Biological target: Leishmania major actin (Leishmania major, UniProt P45520 2-376)
Assay: ITC; ATP-actin

Leishmania major actin, sequence (P45520 2-376): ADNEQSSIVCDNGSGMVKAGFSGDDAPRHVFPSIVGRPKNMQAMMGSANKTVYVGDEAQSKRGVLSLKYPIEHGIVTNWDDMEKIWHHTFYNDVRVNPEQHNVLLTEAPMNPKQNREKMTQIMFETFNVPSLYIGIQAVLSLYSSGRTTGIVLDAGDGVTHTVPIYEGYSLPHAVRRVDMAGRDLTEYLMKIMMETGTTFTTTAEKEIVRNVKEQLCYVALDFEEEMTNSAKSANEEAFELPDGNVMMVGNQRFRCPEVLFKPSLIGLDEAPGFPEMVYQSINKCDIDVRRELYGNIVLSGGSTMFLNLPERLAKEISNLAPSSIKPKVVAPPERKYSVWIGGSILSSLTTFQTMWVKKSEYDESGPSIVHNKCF

B1: Leishmania major profilin, wild type (natural protein)
chain: SWQAYVDDSLIGSGNMHSAAIIGAADGSYWAYGGSYVPQPEEVQHIQKCLSDFSFVQSSGVNIYGVKFFGLQCGTDGDCKYIFFKKGAAGGCIYTTKQAFIVAVYGNPGDTSSLQQDLEKNTAHAVTVNPADCNTTVKRIADYLIKLGY
For B1, the Kd was 0.0718 µM.
